Test results taken from PMC12246617, “Cryo-EM structures reveal the PP2A–B55α and Eya3 interaction that can be disrupted by a peptide inhibitor” (The Journal of Biological Chemistry, 2025).
Positions count from the first letter of the chain named. Names may count otherwise. Blank lines part the entries; values can stand above or below the binder they belong to.

Legend:
[1] = biological target: B55i peptide (computationally engineered inhibitory peptide of B55); test: fluorescence polarisation; His-B55 serially diluted in 50 mM Tris pH 8, 100 mM NaCl, 1 mM DTT, incubated with 3 nM FITC-B55i at room temperature for 10 min
[2] = biological target: T1, His-hB55 (human PP2A regulatory subunit B55α), P63151; test: MST; conditions: chain shown with the change;
T1 chain: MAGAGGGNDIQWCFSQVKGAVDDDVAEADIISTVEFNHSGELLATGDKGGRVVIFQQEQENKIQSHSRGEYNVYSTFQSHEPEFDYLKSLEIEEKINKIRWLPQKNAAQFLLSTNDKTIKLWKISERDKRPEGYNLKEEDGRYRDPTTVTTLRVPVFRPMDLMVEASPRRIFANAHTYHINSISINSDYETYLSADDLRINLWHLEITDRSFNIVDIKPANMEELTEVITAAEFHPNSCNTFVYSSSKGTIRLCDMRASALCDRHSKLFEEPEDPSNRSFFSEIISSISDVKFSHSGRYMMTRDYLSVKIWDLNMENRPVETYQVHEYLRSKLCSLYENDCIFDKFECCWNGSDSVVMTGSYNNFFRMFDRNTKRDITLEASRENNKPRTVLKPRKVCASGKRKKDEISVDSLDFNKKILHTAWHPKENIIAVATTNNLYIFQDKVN

Kd [1]: 0.0673 µM
B1: His-hB55 (human PP2A regulatory subunit B55α) (natural protein)
chain: T1 chain

Kd ([2]; parent: 1.04 µM): 4.87 µM
B2: mouse Eya3 (mEya3), wild type, P97480 Y77A (protein)
chain: MEEEQDLPEQPVKKAKMQEPREQTLSQVNNPDASDEKPETSSLASNLSMSEEIMTCTDYIPRSSNDYTSQMYSAKPAAHILSVPVSETTYPGQTQYQTLQQSQPYAVYPQATQTYGLPPFASSTNASLIPTSSAIANIPAAAVASISNQDYPTYTILGQNQYQACYPSSSFGVTGQTNSDAETTTLAATTYQTEKPSAMVPAPATQRLPSDSSASPPLSQTTPNKDADDQARKNMTVKNRGKRKADASSSQDSELERVFLWDLDETIIIFHSLLTGSYAQKYGKDPTVVIGSGLTMEEMIFEVADTHLFFNDLEECDQVHVEDVASDDNGQDLSNYSFSTDGFSGSGGSGSHGSSVGVQGGVDWMRKLAFRYRKVREIYDKHKSNVGGLLSPQRKEALQRLRAEIEVLTDSWLGTALKSLLLIQSRKNCANVLITTTQLVPALAKVLLYGLGEIFPIENIYSATKIGKESCFERIVSRFGKKVTYVVIGDGRDEEIAAKQHNMPFWRITNHGDLVSLHQALELDFL

Kd ([2]; parent: 1.04 µM): 4.24 µM
B3: mouse Eya3 (mEya3), wild type, P97480 K75A (protein)
chain: B2 chain with K75A, A77Y

Kd ([2]; parent: 1.04): 9.16 µM
B4: mouse Eya3 (mEya3), wild type, P97480 H79A (protein)
chain: B2 chain with A77Y, H79A
